Measurements taken from US9289444B2, “Composition for promoting hematogenesis containing quercetin 3-O-β-(2″-galloyl)-rhamnopyranoside as active ingredient” (Chungbuk National University Industry Academic Cooperation …, priority 2011, dated 2016).

System: BMNCs
Test: Histochemistry (Wright-Giemsa) and immunocytochemistry for erythroid cells (TER-119)
Format: cell-based, mouse
Settings: 7 days culture, Wright-Giemsa staining
Procedure: In order to investigate whether QGR can stimulate the differentiation of hematopoietic stem cells into erythroid cells, the morphology of cells was observed and immunocytochemistry against TER-119, the marker of erythroid progenitors, was carried out. BMNCs were harvested 7 days after incubation with either rEpo (3 units/ml) or QGR (100 or 200 μM/ml) washed with PBS, re-suspended at a concentration of 2×10^5 cells/ml in PBS and subjected (100 μl/slide) to cytospin for 5 min at 1,000 rpm (Cytospin3; Shandon, ThermoElectron, Waltham, Mass., USA). All slides were fixed using cold methanol. Wright-Giemsa stain was performed for morphologic analysis. Immunocytochemistry against TER-119 was carried out for cellular lineage with 100-fold dilution according to the manufacturer's instruction using avidin biotinylated enzyme complex kit (VECTASTAIN, Vector Laboratories and Burlingame, Calif., USA).

B1: positive control group: mouse recombinant Epo (rEpo, 3 units/ml), positive control in the erythroid differentiation tests (protein, UniProt P07321 27-192, looked up)
Erythropoietin: APPRLICDSRVLERYILEAKEAENVTMGCAEGPRLSENITVPDTKVNFYAWKRMEVEEQAIEVWQGLSLLSEAILQAQALLANSSQPPETLQLHIDKAISGLRSLTSLLRVLGAQKELMSPPDTTPPAPLRTLTVDTFCKLFRVYANFLRGKLKLYTGEVCRRGDR
In the case of B1, the “number of enucleated erythroid cells” value is reported as “increased”.
